Results as given in patent US20240262926A1 (published 2024).

T1: recombinant monkey TfR (r monkey TfR: Sino Biological Inc.) (cynomolgus monkey (Macaca fascicularis), UniProt Q5RDH6 89-760 (Pongo abelii entry))
T1 construct: Bought product; also called r monkey TfR-ECD (Histag); cynomolgus monkey TfR; not shown: histidine tag attached to the N-terminus
T1 chain: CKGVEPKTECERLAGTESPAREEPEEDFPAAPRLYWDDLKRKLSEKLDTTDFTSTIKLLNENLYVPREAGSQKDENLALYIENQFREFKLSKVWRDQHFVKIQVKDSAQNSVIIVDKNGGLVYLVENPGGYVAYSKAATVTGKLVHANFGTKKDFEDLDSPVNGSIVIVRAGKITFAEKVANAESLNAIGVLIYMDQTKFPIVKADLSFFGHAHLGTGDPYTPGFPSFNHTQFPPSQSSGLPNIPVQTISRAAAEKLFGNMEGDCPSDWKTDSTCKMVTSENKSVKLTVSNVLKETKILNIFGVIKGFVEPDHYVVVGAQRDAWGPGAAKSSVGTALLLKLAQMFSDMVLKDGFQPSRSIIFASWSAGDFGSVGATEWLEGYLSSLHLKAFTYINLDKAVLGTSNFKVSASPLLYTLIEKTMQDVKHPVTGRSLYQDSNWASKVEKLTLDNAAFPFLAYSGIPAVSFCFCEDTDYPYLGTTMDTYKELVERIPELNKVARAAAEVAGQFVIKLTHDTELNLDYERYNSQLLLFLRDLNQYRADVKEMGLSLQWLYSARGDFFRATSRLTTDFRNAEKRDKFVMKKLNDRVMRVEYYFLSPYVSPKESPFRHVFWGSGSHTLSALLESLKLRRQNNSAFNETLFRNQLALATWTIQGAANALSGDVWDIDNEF


Assays:
[1] = biological target: human TrkB (GenBank Acc. No. NP_001018074.1) expressed in CHO cells (human, UniProt Q16620 32-822); assay: cell-based or functional assay
[2] = biological target: T2, recombinant human TfR (r human TfR: Sino Biological Inc.) (human, UniProt P02786 89-760); assay: BLI (Octet RED96), method of Example 7, His-tagged TfR ECD on Ni-NTA sensor
T2 construct: Bought product; also called r human TfR-ECD (Histag); hTfR; not shown: histidine tag attached to the N-terminus
Procedure: (§1) Each of the antibodies (anti-hTfR antibody Nos. 1 to 14) purified above was subjected to 2-fold dilution steps with HBS-P+(10 mM HEPES containing 150 mM NaCl, 50 μM EDTA and 0.05% Surfactant P20) to prepare antibody solutions of 7 different concentrations, 0.78125 to 50 nM (0.117 to 7.5 μg/mL). These antibody solutions were used as the sample solutions. The r human and r monkey TfRs were respectively diluted with HBS-P+ to prepare 25 μg/mL solutions, which were used as r human TfR-ECD (Histag) solution and r monkey TfR-ECD (Histag) solution, respectively.
(§2) Each of the sample solutions prepared above by 2-fold dilution steps was added, 200 μL/well, to a 96-well plate, black (Greiner Bio-One Inc.). Each of the r human TfR-ECD (Histag) solution and the r monkey TfR-ECD (Histag) solutions prepared above was added, 200 μL/well, to predetermined wells. To respective wells for baseline, dissociation and washing were added HBS-P+, 200 μL/well. To wells for regeneration were added 10 mM Glycine-HCl, pH 1.7, 200 μL/well. To wells for activation was added 0.5 mM NiCl₂ solution, 200 μL/well. The plate and biosensor (Biosensor/Ni-NTA: ForteBio Inc., a division of Pall Corporation) were set in the prescribed positions of Octet RED96. […] The measurement was performed at 25 to 30° C.
(§3) The affinity of the humanized anti-hTfR antibodies obtained in Example 13 to human and monkey TfRs was measured by the method described in Example 7.

[3] = biological target: T1, recombinant monkey TfR (r monkey TfR: …); assay: as above
Procedure: as §1, §2, §3

Sequence of human TrkB (GenBank Acc. No. NP_001018074.1) expressed in CHO cells (Q16620 32-822): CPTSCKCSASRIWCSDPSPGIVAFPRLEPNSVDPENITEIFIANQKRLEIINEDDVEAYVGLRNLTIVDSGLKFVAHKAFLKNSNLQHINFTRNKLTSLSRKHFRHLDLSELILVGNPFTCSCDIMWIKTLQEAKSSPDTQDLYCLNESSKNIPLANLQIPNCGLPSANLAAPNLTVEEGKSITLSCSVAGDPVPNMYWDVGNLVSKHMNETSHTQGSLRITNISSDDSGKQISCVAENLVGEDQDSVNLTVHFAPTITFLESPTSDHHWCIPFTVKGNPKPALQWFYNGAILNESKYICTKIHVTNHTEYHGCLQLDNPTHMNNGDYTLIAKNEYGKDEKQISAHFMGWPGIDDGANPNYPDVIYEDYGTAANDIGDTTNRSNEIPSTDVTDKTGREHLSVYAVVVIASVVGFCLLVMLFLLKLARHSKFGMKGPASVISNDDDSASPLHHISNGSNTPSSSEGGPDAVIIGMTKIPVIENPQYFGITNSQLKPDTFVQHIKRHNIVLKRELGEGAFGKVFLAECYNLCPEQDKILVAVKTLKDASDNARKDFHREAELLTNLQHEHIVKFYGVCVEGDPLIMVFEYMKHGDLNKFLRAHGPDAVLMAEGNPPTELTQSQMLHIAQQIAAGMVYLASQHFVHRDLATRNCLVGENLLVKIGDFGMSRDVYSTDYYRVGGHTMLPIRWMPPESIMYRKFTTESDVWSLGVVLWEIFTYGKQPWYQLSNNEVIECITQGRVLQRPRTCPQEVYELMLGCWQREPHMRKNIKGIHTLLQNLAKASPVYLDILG

| Binder | BDNF activity (TrkB agonistic EC50, nmol/L) [1] | Kd [2] | koff [2] | kon [2] | Kd [3] | koff [3] | kon [3] |
| --- | --- | --- | --- | --- | --- | --- | --- |
| hBDNF-anti-hTfR antibody 5 (other) HSDPARRGELSVCDSISEWVTAADKKTAVDMSGGTVTVLEKVPVSKGQLKQYFYETKCNPMGYTKEGCRGIDKRHWNSQCRTTQSYVRALTMDSKKRIGWRFIRIDTSCVCTLTIKRGRGSGGGGSGGGGSGGGGSGGGGSGGGGSEVQLVQSGAEVKKPGESLKISCKGSGYSFTNYWLGWVRQMPGKGLEWMGDIYPGGDYPTYSEKFKVQVTISADKSISTAYLQWSSLKASDTAMYYCARSGNYDEVAYWGQGTLVTVSSGGGGSGGGGSGGGGSDIVMTQTPLSLSVTPGQPASISCRSSQSLVHSNGNTYLHWYLQKPGQSPQLLIYKVSNRFSGVPDRFSGSGSGTDFTLKISRVEAEDVGVYYCSQSTHVPWTFGQGTKVEIK | 0.092 nmol/L | – | – | – | – | – | – |
| hBDNF-anti-hTfR antibody 7 (other) heavy: HSDPARRGELSVCDSISEWVTAADKKTAVDMSGGTVTVLEKVPVSKGQLKQYFYETKCNPMGYTKEGCRGIDKRHWNSQCRTTQSYVRALTMDSKKRIGWRFIRIDTSCVCTLTIKRGRGSGGGGSGGGGSGGGGSGGGGSGGGGSEVQLVQSGAEVKKPGESLKISCKGSGYSFTNYWLGWVRQMPGKGLEWMGDIYPGGDYPTYSEKFKVQVTISADKSISTAYLQWSSLKASDTAMYYCARSGNYDEVAYWGQGTLVTVSSASTKGPSVFPLAPSSKSTSGGTAALGCLVKDYFPEPVTVSWNSGALTSGVHTFPAVLQSSGLYSLSSVVTVPSSSLGTQTYICNVNHKPSNTKVDKKVEPKSCDKTHT light: DIVMTQTPLSLSVTPGQPASISCRSSQSLVHSNGNTYLHWYLQKPGQSPQLLIYKVSNRFSGVPDRFSGSGSGTDFTLKISRVEAEDVGVYYCSQSTHVPWTFGQGTKVEIKRTVAAPSVFIFPPSDEQLKSGTASVVCLLNNFYPREAKVQWKVDNALQSGNSQESVTEQDSKDSTYSLSSTLTLSKADYEKHKVYACEVTHQGLSSPVTKSFNRGEC | 0.23 nmol/L | – | – | – | – | – | – |
| humanized anti-hTfR antibody No. 1 (antibody, human IgG1, kappa, V domains shown, IgG1; expressed in CHO-K1, purified on Protein A) VH: EVQLVESGGGLVQPGGSLRLSCAASGLTFSNYGMSWVRQAPGKGLELVANINTNGGSTYYPDSVKGRFTISRDNAKNSLYLQMNSLRAEDTAVYYCTNNRYDEDYWGQGTLVTVSS VL: DIQVTQSPSFLSASVGDRVTITCKASQDVNSAVAWFQQKPGKAPKLLIYWTSTRHTGVPDRFSGSGSGTVYTLTISSLQPEDFATYYCQQHYSTPRTFGGGTKVEIKR | – | < 0.001 nM | < 1e-07 s⁻¹ | 393000 M⁻¹ s⁻¹ | < 0.001 nM | < 1e-07 s⁻¹ | 253000 M⁻¹ s⁻¹ |
| humanized anti-hTfR antibody No. 2 (antibody, human IgG1, kappa, V domains shown, IgG1; expressed in CHO-K1, purified on Protein A) VH: QVQLVQSGAEVKKPGASVKVSCKASGYTFTDYVMHWVRQAPGQGLEWIGVISTYYGHGSYNQRFKGRATMTVDKSISTAYMELVRLRSDDTAVYYCVRGGYGSSSLAGNFDVWGQGTTVTVSS VL: EIVLTQSPDFQSVTPKEKVTITCRASQSISNNLQWYQQKPDQSPKLLIKYASQSISGIPSRFSGSGSGTDFTLTINSLEAEDAATYLCQQSNSWPRTFGQGTKVEIKR | – | < 0.001 nM | < 1e-07 s⁻¹ | 197000 M⁻¹ s⁻¹ | 0.0755 nM | 3.67e-05 s⁻¹ | 487000 M⁻¹ s⁻¹ |
